The target in data set [1] is T1, unmodified histone H3 residues 1–10 peptide.
T1 construct: Histone H3 residues 1-10, unmodified; also called H3_(1–10); H3un; source: synthetic peptide
T1 peptide: ARTKQTARKS
Put plainly: ITC; 25 °C, MicroCal PEAQ-ITC; 20 mM Tris 7.5, 50 mM NaCl, 5% glycerol; one set of binding sites model. The conditions noted are these: both partners purified.

Data set [2] concerns the molecule itself. In words: cryo-EM structure; free Rpd3S complex, subunits co-expressed in Sf9 and purified together; stabilised by GraFix (glycerol gradient with 0.15% glutaraldehyde); 3.2 Å overall, local maps 2.7 Å and 3.2 Å.

No end group written: not given here.

B1: PHD1 domain of Rco1 (domain or fragment)
chain: EDFCSACNQSGSFLCCDTCPKSFHFLCLDPPIDPNNLPKGDWHCNECKFK
modifications: cysteine pairing not given here; also: Zn2+ bound
By Kd is commonly meant the free concentration of one partner at which half of the binding sites on the other are occupied at equilibrium, for simple one-to-one binding. Low values mean higher affinity, high ones lower affinity. In turn, B1 came in with a Kd in data set [1] of approximately 39 µM.

B2: Rco1 (natural protein, S. cerevisiae, UniProt Q04779 1-684, looked up)
chain: MDTSKKDTTRSPSHSNSSSPSSSSLSSSSSKEKKRPKRLSSQNVNYDLKRRKIITSEGIERSFKNEHSNLAVEDNIPEEEPKELLEKDSKGNIIKLNEPSTISEDSKVSVTGLPLNKGPSEKIKRESLWNYRKNLGGQSNNSEMTLVPSKRFTQVPKNFQDLNRNDLKTFLTENMTEESNIRSTIGWNGDIINRTRDREPESDRDNKKLSNIRTKIILSTNATYDSKSKLFGQNSIKSTSNASEKIFRDKNNSTIDFENEDFCSACNQSGSFLCCDTCPKSFHFLCLDPPIDPNNLPKGDWHCNECKFKIFINNSMATLKKIESNFIKQNNNVKIFAKLLFNIDSHNPKQFQLPNYIKETFPAVKTGSRGQYSDENDKIPLTDRQLFNTSYGQSITKLDSYNPDTHIDSNSGKFLICYKCNQTRLGSWSHPENSRLIMTCDYCQTPWHLDCVPRASFKNLGSKWKCPLHSPTKVYKKIHHCQEDNSVNYKVWKKQRLINKKNQLYYEPLQKIGYQNNGNIQIIPTTSHTDYDFNQDFKITQIDENSIKYDFFDKIYKSKMVQKRKLFQFQESLIDKLVSNGSQNGNSEDNMVKDIASLIYFQVSNNDKSSNNKSASKSNNLRKLWDLKELTNVVVPNELDSIQFNDFSSDEIKHLLYLKKIIESKPKEELLKFLNIENPENQSE
notes: Rco1, S. cerevisiae, full length; residues 107-565 (Rco1-A) and 262-358 (Rco1-B) are modelled in the structure; The complex was captured on strep beads by the Strep-tag of Rco1; the tag was then cleaved with TEV protease before anion exchange and SEC; Two copies (Rco1-A, Rco1-B) stand in the Rpd3S complex; also called Rco1-A; Rco1-B; not shown: Strep-tag, N-terminal, cleaved
Turning to B2, the binding result in data set [2] is “binds”.

The values above are taken from paper PMC10432269, “Diverse modes of H3K36me3-guided nucleosomal deacetylation by Rpd3S” (Nature, 2023).
